The values that follow come from the nanobody polyreactivity screen of Harvey et al. (2022).

This data set in a line: yeast display, Sf9 membrane polyspecificity reagent, FACS + sequencing; frameworks hold sequencing errors. The method in brief: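 A nanobody's polyreactivity label depends on the gate it was sorted from. Yeast display cells were stained with 10% biotinylated, detergent-solubilized Sf9 membrane reagent for 1 hour at 4 °C, enriched on streptavidin microbeads and sorted by FACS. The low and high (top ~1%) gates were set on anti-HA fluorescence for expression and streptavidin fluorescence for reagent binding.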
Take “QVQLVESGGGLVQAGGSLRLICAATGSIFPVYAMVWSRQAPGKEREFVARIRFSGGRTYYADSVKGRYTISRDNAMNTVYLQMNSLKPEDTAVYYCAKDFRGYRWSYYWGQGTQVTVSS”: the “polyreactivity (PSR sort gate)” value is listed as “high polyreactivity”.

Take “QVQLVESGGGLVQAGGSLRLICAATGSTFVYNAMGWYRQAPGKEREFVAVINWSGGRTYADSVKGRFTISRDNAKNTVYLQMNSLKPEDTAVYYCNGERRTYRVALQYRRYDYWGQGTQVTVSS”: the “polyreactivity (PSR sort gate)” value is “high polyreactivity”.

“QVQLVESGGGLVQAGGSLRLICAAYGITIGVYAMGWYRQAPVKERELVAAISSSGDTTYYADSVKGRFTISRDNAKNTVYLQKNSLKPEDTAVYYSAAYSHHQFSRSEYYYWGQGTQVTVSS”: the “polyreactivity (PSR sort gate)” value was “low polyreactivity”.

Turning to “QVQLVESGGGLVQAGGSLRLICADSGRIFGWYAMGWYRQAPGKERELVAAITSGSRTSYADSVKGRFTISRDNAKNTVYLQMNSLKPEDTAVYYCNRVSHLDYYWGQGTQVTVSS”, the “polyreactivity (PSR sort gate)” value was “high polyreactivity”.

For “QVQLVESGGGLVQAGGSLRLICADSRRTFVSYTMGWYRQAPAKERELVAAISSGGSTTYADSVKGRFTISRDNAKNTVYLQMNSLKPEDTAVYYGNARYGWSYWSKYDYWGQGTQVNVSS”, the “polyreactivity (PSR sort gate)” value is “high polyreactivity”.

Take “QVQLVESGGGLVQAGGSLRLICDASGIIFFPYAMGWYRQAPGKEREFVAAIRATGDNTYYADSVKGRFTISRDNAKNTVYLQMNSLKPEDTAVYYCAADRGTYQVDYWGQGTQVTVSS”: the “polyreactivity (PSR sort gate)” value is reported as “low polyreactivity”.

In the case of “QVQLVESGGGLVQAGGSLRLICDASGRILTGNAMGWYRQAPGKERELVAAISYNGGRTYYADSVKGRFTISRDNAKNTVYLQMNSLKPEDTAVYYCNVVRRQLQTSHPYGYWGQGTQVTVSS”, the “polyreactivity (PSR sort gate)” value is on record as “low polyreactivity”.

In the case of “QVQLVESGGGLVQAGGSLRLICDASGSTFAYNDMGWYRQAPGKERELVAAITYSGGSTYYADSVKGRFTISRDNAKNTVSLQMNSLKPEDTAVYYCNAYTGYPYEYWGQGTQVTVSS”, the “polyreactivity (PSR sort gate)” value is given as “low polyreactivity”.

“QVQLVESGGGLVQAGGSLRLICDASGSTFGYYAIGGYRQAPGKERELVAVINKSGGRTYYADSVKGRFTISRDNAKNTVYLQMNSLKPEDTAVYYCATRVTSTRHDYWGQGTQVTVSS”: the “polyreactivity (PSR sort gate)” value was “high polyreactivity”.

As for “QVQLVESGGGLVQAGGSLRLICDDSGSILSYNTMGWYRQAPGKEREFVAGITYSGSRTYYADSVKGRFTISRDNAKNTVSLQMNSLKPVDTAVYYCAKRNYYRMYWGQGTQVTVSS”, the “polyreactivity (PSR sort gate)” value is recorded as “high polyreactivity”.

“QVQLVESGGGLVQAGGSLRLICPASGSIFYYYAMGWYRQAPGKERELVAAISYSDDDTYYADSVKGRFTISRDNAKNTVYLQMNSLKPEDTAVYYCAAEFTIAWSYTMDYWVQGTQVTVSS”: the “polyreactivity (PSR sort gate)” value is “high polyreactivity”.

In the case of “QVQLVESGGGLVQAGGSLRLICSASGRTFLYNSMGWYRQAPGKERELVAAIRWSGGTTYYADSVKGRFTISRDNAKYNVYLQMNSLKPEDTAVYYCAARWGPYYGGVRYGYWGQGTQVTVSS”, the “polyreactivity (PSR sort gate)” value is “high polyreactivity”.

As to “QVQLVESGGGLVQAGGSLRLIFAASGSIFNRYTMGWYRQAPGKERELVADISKSGTRTYYADSVKGRFTISRDNAKNTVYLQMNSLKPEDTAVYYCAKSSVAVYQTRYDYWGQGTQVTVSS”, the “polyreactivity (PSR sort gate)” value is on record as “high polyreactivity”.

Take “QVQLVESGGGLVQAGGSLRLISAASGFIFRYNAMGWYRQAPGKESELVATISSGGGNTYYADSVKGRFTISRDNAKNTVYLQMNSLKPEDTAVYYCAARRYYGVYYAFYYWGQGTQVTVSS”: the “polyreactivity (PSR sort gate)” value is “high polyreactivity”.

For the sequence “QVQLVESGGGLVQAGGSLRLISAASGITFDYYAIGWSRQAPGKERELVAAITNDGRTYYADSVKGRFTISRDNAKNTVYLQMNSLKPEDTAVYYCARLTFREYDYWGQGTQVTVSS”, the “polyreactivity (PSR sort gate)” value is “low polyreactivity”.

In the case of “QVQLVESGGGLVQAGGSLRLISPASRFTFRYYAMGWYRQAPGKERELVAAISRGGTTNYADSVKGRFTISRDNAKNTVYLQMNSLKPEDTAVYYCATTRYDYWGQGTQVTVSS”, the “polyreactivity (PSR sort gate)” value was “high polyreactivity”.

On to “QVQLVESGGGLVQAGGSLRLNCAASGLIFSNNAMGWYRQAHRKERDLVAAITSSGSRTYYADSVKGRFTISRDNAQITVYLQMNSLKPEDTAVYYCAAYEVPYQRRYGYWGQGTQVTVSS”, for which the “polyreactivity (PSR sort gate)” value was “high polyreactivity”.

Take “QVQLVESGGGLVQAGGSLRLNCAASGRIFVGNTMGWDRQAPGKERELVAAITVRGGSTYYADSVKGRFTISRDNAKNTVYLQMNSLKPEDTAVYYCAARRRIFPPRFGYWGQGTQVTVSS”: the “polyreactivity (PSR sort gate)” value was “high polyreactivity”.

Regarding “QVQLVESGGGLVQAGGSLRLRCAASGFTFRYYALAWYRPAPGKERELVAAISGSGGSTYYADSVKGRFTISRDNAKNTVYLQMNSLKPEDTAVYYCNALSARSRLQSDYWGQGTQVTVSS”, the “polyreactivity (PSR sort gate)” value is “high polyreactivity”.

For “QVQLVESGGGLVQAGGSLRLRCAASGFTFTAYAMGWYRQAPGKERELVAAITWRDGITYYADSVKGRFTISRDNAKNTVYLQMNSLKPEDTADYYCAASWSTEYYWGQGTQVTVSS”, the “polyreactivity (PSR sort gate)” value is given as “high polyreactivity”.

Turning to “QVQLVESGGGLVQAGGSLRLRCAASGFTIGYNVMGLYRQAPGKERELVATISWNGARTYYADSVKGRFTISRDNAKNTVYLQMNSLKPEDTAVYYCAARRYYRGEYDYWGQGTQVTVSS”, the “polyreactivity (PSR sort gate)” value is on record as “low polyreactivity”.

With “QVQLVESGGGLVQAGGSLRLRCAASGFTLLWNSMGWYRQAPGKEREFVAVISSGGSTNYADSVKGRFTISRDNAKNTVYLQMNSLKPEDTAVYYCATRRPSSSSAAAWFYYWGQGTQVTVSS”, the “polyreactivity (PSR sort gate)” value was “low polyreactivity”.

“QVQLVESGGGLVQAGGSLRLRCAASGGTFNVYAMGWYRQAPGKERELVARITWNGGRTSYADSVKGRFTISRDNAKNTVYLQMNSLKPEDTAVYFCAAETRYKRIYPYGRATEDYWGQGTQVTVSS”: the “polyreactivity (PSR sort gate)” value is listed as “high polyreactivity”.

As to “QVQLVESGGGLVQAGGSLRLRCAASGIIFSYYAMGLSRQAPGKERELFAAISSSGSTNYADSVKGRFTISRDNAKNTVYLQMNSLKPEDTAVYYCNAGYGRRVYVYSFKLRYNYWGQGTQVTVSS”, the “polyreactivity (PSR sort gate)” value is listed as “high polyreactivity”.

“QVQLVESGGGLVQAGGSLRLRCAASGITFRNYAMGWYRQAPGKEMEFVATISRRAGSTYYADSVKGRFTISRDNAKNTVYLQMNRLKPEDTAVYYCAVRPSYVYFLGARYDYWGQGTQVTVSS”: the “polyreactivity (PSR sort gate)” value is “high polyreactivity”.

“QVQLVESGGGLVQAGGSLRLRCAASGITFSRNAMGAYRQAPGKERELVATITSGGSTNYADSVKGRFTISRDNAKNTVYLQMNSLKPEDTAVYYCNADWNTFISGRSYDYWGQGTQVTVSS”: the “polyreactivity (PSR sort gate)” value is given as “low polyreactivity”.

For the sequence “QVQLVESGGGLVQAGGSLRLRCAASGLTFTGNAMGWYRQAPGKEREFVAAIRWSAGSTYYADSVKARFTISRDNAKNTVYLHMNSLKPEDTAVYYCKAALNVSGHYTNDSWGQGTQVTLSS”, the “polyreactivity (PSR sort gate)” value is listed as “low polyreactivity”.

On to “QVQLVESGGGLVQAGGSLRLRCAASGLTFVDNAMGWYSQAPGKERELVAAITKRGGRTYYADSVKGRFTISRDNAKNTVYLQMNSLKPEDPAVYYCARDSGNDSSRRLDYWGQGTQVTVSS”, for which the “polyreactivity (PSR sort gate)” value is listed as “low polyreactivity”.

“QVQLVESGGGLVQAGGSLRLRCAASGNIFYGNAMGWYRQAPGKERELVAGITSGGSTNYADSVKGRFTISRDNAKNTVYLQMNSLKPEDTAVYYCNATSSGSIFGYDYWGQGTQVTVSS”: the “polyreactivity (PSR sort gate)” value is reported as “low polyreactivity”.

As to “QVQLVESGGGLVQAGGSLRLRCAASGRIFGFYAMGWYRQAPGKERELVAAITSSAGRTRYADSVKGRFTISRDNAKNTVYLQMNSLKPEDTAVYYCAARTVGRKAGFDYWGQGTQVTVSS”, the “polyreactivity (PSR sort gate)” value is listed as “high polyreactivity”.

As to “QVQLVESGGGLVQAGGSLRLRCAASGRIFRLYAMGWYRQAPGKERELVAAIRSSGGSTYADSVKGRFTISRDNAKNTVYLHMNSLKPEDTAVYYCAARWGRLPEQYRYDYWGQGTQVTVSS”, the “polyreactivity (PSR sort gate)” value is given as “high polyreactivity”.

In the case of “QVQLVESGGGLVQAGGSLRLRCAASGRIFRYYAMGWYRQAPGKESELVAAITSSGGSTFYADSVKARFTISRDNAKNTVYLQMNSLKPEDTAVYYCAAPRGTRKTYNSWGQGTQVTVSS”, the “polyreactivity (PSR sort gate)” value was “high polyreactivity”.

In the case of “QVQLVESGGGLVQAGGSLRLRCAASGRIFVPYVMGWYRQAPGKERELVASISDSDTSTYYADSVKGRFTISRDNAKNTVYLQMNSLKPEDTAVYYCNVDYWGQGTQVTVSS”, the “polyreactivity (PSR sort gate)” value was “low polyreactivity”.

As for “QVQLVESGGGLVQAGGSLRLRCAASGRIYCDNATGRYRQAPGKESELVAPISDSVVITYYADSVKGRFTISRDNAKNTLYVQMNSLKPEDTAVYYCAADKRGTVYLSSFWMDYWGQGTQVTVSS”, the “polyreactivity (PSR sort gate)” value was “low polyreactivity”.

On to “QVQLVESGGGLVQAGGSLRLRCAASGRTFDTYAMGWYRQAPWKERELVASITYRGGSTYYADSVKGRFTITRDNAKNTVYLQMNSLKPEDTAVYYCNAKVKRNKRWRGYWGQGTQVTVSS”, for which the “polyreactivity (PSR sort gate)” value is “high polyreactivity”.

On to “QVQLVESGGGLVQAGGSLRLRCAASGRTFGGNAMGWYRQAPGKERELVAAISFSGGSTYYADSVKGRFTISRDNAKNTVYLQMNSLKPEDTAVYYCAARYYWSVYADQGDYWGQGTQVTVSS”, for which the “polyreactivity (PSR sort gate)” value is “low polyreactivity”.

Consider “QVQLVESGGGLVQAGGSLRLRCAASGRTFYGYDMGWYRQAPGKERELVATISSGGSTNYADSVKGRFTFSRDNAKNTVYLQMNSLKPEDTAVYYCNADRYVDPRTYFGYDYCGQGTQVTVSS”, for which the “polyreactivity (PSR sort gate)” value was “low polyreactivity”.

Turning to “QVQLVESGGGLVQAGGSLRLRCAASGSIFESNAMGWYRQAPGKETEFVAAIDQNDGSTYYADSVKGRFTISRDNAKNTVYLQMNSLKPDDTAVYYCAARCYVYRLTWGDYWGQGTQVTVSS”, the “polyreactivity (PSR sort gate)” value is “low polyreactivity”.

For “QVQLVESGGGLVQAGGSLRLRCAASGSIFIGYAMGWYRQAPGKERELVAAITSGSITNYAYSVKGRFTISRDNAKNTVYLLMNSLKPEDTAVYYCNADVNFIDDDYWGQGTQVTVSS”, the “polyreactivity (PSR sort gate)” value is “low polyreactivity”.

For “QVQLVESGGGLVQAGGSLRLRCAASGSIFNSYAMGWYRPAPGKERELVAAISIRGTRTYYADSVKGRFTISRDNAKNTVSLQMNSLKPEDSAVSYCAADASSTEGMDFWGQGTQLTVSS”, the “polyreactivity (PSR sort gate)” value is “high polyreactivity”.

“QVQLVESGGGLVQAGGSLRLRCAASGSIFVSNTMGWYRQAPGKEREMVASIRETAGSTNYADSVKGRFTISRDYAKNTVYLQMNSLKPEDTEVYYCAARYSPTRYHYGYWGQGTQVTVSS”: the “polyreactivity (PSR sort gate)” value is “low polyreactivity”.
